From paper PMC5862564
Values joined by “and” are separate entries in the source; they are usually repeats but may differ in a detail not shown here. Identical values can stand only once.

Legend:
[1] = target: SKAP2N1 (SKAP2 with Gaussia princeps luciferase fragment 1 at its N-terminal end) (UniProt O75563); experiment: GPCA; details: read off a plot
[2] = target: FYB fused N-terminally to Gaussia princeps luciferase fragment 1, O15117-3; experiment: GPCA; details: read off a plot
[3] = target: HaloTag-FYB (human) (UniProt O15117); experiment: pull-down + split reporter (BiFC, NanoBiT); HaloTag-fused hook captured from HEK293T lysate on HaloLink resin, 6 washes with PBS 0.1% Tween; luminescence of the co-expressed GPCA pair on the resin; ratio of cells with the HaloTag vector to cells with the pCNeo vector expressing the same protein

Chain of FYB fused N-terminally to Gaussia princeps luciferase fragment 1, O15117-3 (O15117 other isoform, or with tags, fused parts or gaps): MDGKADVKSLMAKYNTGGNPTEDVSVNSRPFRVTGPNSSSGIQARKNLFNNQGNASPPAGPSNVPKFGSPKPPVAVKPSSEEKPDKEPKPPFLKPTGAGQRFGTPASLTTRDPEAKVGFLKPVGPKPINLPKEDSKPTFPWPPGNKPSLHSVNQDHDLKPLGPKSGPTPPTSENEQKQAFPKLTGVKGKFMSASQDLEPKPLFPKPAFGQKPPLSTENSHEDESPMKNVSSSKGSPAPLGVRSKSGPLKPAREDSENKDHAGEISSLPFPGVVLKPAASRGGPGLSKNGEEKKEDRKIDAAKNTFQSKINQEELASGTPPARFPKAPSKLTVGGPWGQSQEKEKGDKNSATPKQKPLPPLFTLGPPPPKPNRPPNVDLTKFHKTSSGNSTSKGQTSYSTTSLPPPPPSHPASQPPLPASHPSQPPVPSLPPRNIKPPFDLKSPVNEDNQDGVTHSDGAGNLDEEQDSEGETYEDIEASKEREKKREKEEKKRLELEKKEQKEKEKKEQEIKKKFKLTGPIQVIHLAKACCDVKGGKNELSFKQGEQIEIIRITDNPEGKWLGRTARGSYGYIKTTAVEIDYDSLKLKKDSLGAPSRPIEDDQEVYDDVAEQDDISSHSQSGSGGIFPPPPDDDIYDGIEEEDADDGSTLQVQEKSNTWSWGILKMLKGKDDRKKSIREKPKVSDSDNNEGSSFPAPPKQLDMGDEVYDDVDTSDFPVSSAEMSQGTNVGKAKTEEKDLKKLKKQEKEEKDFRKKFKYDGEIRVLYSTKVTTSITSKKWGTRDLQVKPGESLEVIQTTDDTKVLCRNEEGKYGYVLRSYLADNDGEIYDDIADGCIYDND

response ([1]; with A23187, parent: est. 320)	response ([1]; without A23187 (NT), parent: est. 240)	response ([2]; HCK-P249A 0 ng, with A23187, parent: est. 850)	response ([2]; HCK-P249A 0 ng, without A23187, parent: est. 280)	response ([2]; HCK-P249A 25 ng, with A23187, parent: est. 1000)	response ([2]; HCK-P249A 25 ng, without A23187, parent: est. 190)	response ([2]; HCK-P249A 50 ng, with A23187, parent: est. 730)	response ([2]; HCK-P249A 50 ng, without A23187, parent: est. 540)	response ([2]; HCK-P249A 100 ng, with A23187, parent: est. 480)	response ([2]; HCK-P249A 100 ng, without A23187, parent: est. 570)	response ([2]; with A23187, parent: est. 760)	response ([2]; without A23187 (NT), parent: est. 390)	luminescence ratio (HaloTag vector to pCNeo control) [3]	Substance
4.9 NLR	2.2 NLR	2000 NLR	1000 NLR	2500 NLR	570 NLR	1900 NLR	1400 NLR	1300 NLR	1500 NLR	1500 NLR	540 NLR		SKAP2 V24D; F27D; V28E
												49.1 and 135 and 51.8	SKAP2 homo-dimer of two hemi-luciferase-fused SKAP2 (the pair generating the luciferase signal) (from UniProt O75563 1-359) (complex)
												125 and 308 and 160	SKAP2-DIMPH hetero-dimer of hemi-luciferase-fused DIMPH and hemi-luciferase-fused SKAP2 (from UniProt O75563 1-222; O75563 1-359) (complex)
